Reference: patent US20180037904A1

B1: leaf-extracted RCA from Oryza sativa (partially purified, alpha and beta isoforms) (protein)
chain 1: KELDEGKQTDQDRWKGLAYDISDDQQDITRGKGFVDSLFQAPTGDGTHEAVLSSYEYLSQGLRTYDFDNTMGGFYIAPAFMDKLVVHISKNFMTLPNIKVPLILGIWGGKGQGKSFQCELVFAKMGINPIMMSAGELESGNAGEPAKLIRQRYREAADIIKKGKMCCLFINDLDAGAGRMGGTTQYTVNNQMVNATLMNIADNPTNVQLPGMYNKEDNPRVPIIVTGNDFSTLYAPLIRDGRMEKFYWAPTRDDRVGVCKGIFRTDNVPDEDIVKIVDSFPGQSIDFFGALRARVYDDEVRKWVSDTGVENIGKRLVNSREGPPEFEQPKMTIEKLMEYGYMLVKEQENVKRVQLAEQYLSEAALGDANSDAMKTGSFYGQGAQQAGNLPVPEGCTDPVAKNFDPTARSDDGSCLYTF
chain 2: KELDEGKQTDQDRWKGLAYDISDDQQDITRGKGFVDSLFQAPTGDGTHEAVLSSYEYLSQGLRTYDFDNTMGGFYIAPAFMDKLVVHISKNFMTLPNIKVPLILGIWGGKGQGKSFQCELVFAKMGINPIMMSAGELESGNAGEPAKLIRQRYREAADIIKKGKMCCLFINDLDAGAGRMGGTTQYTVNNQMVNATLMNIADNPTNVQLPGMYNKEDNPRVPIIVTGNDFSTLYAPLIRDGRMEKFYWAPTRDDRVGVCKGIFRTDNVPDEDIVKIVDSFPGQSIDFFGALRARVYDDEVRKWVSDTGVENIGKRLVNSREGPPEFEQPKMTIEKLMEYGYMLVKEQENVKRVQLAEQYLSEAALGDANSDAMKTGSFYGSAPSS
B2: recombinant Oryza australiensis Rubisco activase (RCA), alpha (long) isoform (protein)
chain: MAKELDEDKQTDQDKWKGLAYDISDDQQDITRGKGLVDSLFQAPMGDGTHEAVLSSYEYLSQGLKMLDNTMGGFYIAPAFMDKLVVHISKNFMALPNIKVPLILGIWGGKGQGKSFQCELVFSKMGINPIMMSAGELESGNAGEPAKLIRQRYREAADIIKKGKMCCLFINDLDAGAGRMGGTTQYTVNNQMVNATLMNIADNPTNVQLPGMYNKEDNPRVPIIVTGNDFSTLYAPLIRDGRMEKFYWAPTRDDRVGVCKGIFRTDNVPDEDIVKIVDSFPGQSIDFFGALRARVYDDEVRKWVSDTGVENIGKKLVNSREGPPEFEQPKMTIDKLMEYGHMLVREQENVKRVQLADKYLSEAALGDANSDAMKTGSFYGQGAQQGGNLPVPEGCTDPVAKNFDPTARSDDGSCLYTF
B3: recombinant Oryza sativa Rubisco activase (RCA), alpha (long) isoform (protein)
chain: MAKELDEGKQTDQDRWKGLAYDISDDQQDITRGKGFVDSLFQAPTGDGTHEAVLSSYEYLSQGLRTYDFDNTMGGFYIAPAFMDKLVVHISKNFMTLPNIKVPLILGIWGGKGQGKSFQCELVFAKMGINPIMMSAGELESGNAGEPAKLIRQRYREAADIIKKGKMCCLFINDLDAGAGRMGGTTQYTVNNQMVNATLMNIADNPTNVQLPGMYNKEDNPRVPIIVTGNDFSTLYAPLIRDGRMEKFYWAPTRDDRVGVCKGIFRTDNVPDEDIVKIVDSFPGQSIDFFGALRARVYDDEVRKWVSDTGVENIGKRLVNSREGPPEFEQPKMTIEKLMEYGYMLVKEQENVKRVQLAEQYLSEAALGDANSDAMKTGSFYGQGAQQAGNLPVPEGCTDPVAKNFDPTARSDDGSCLYTF
B4: recombinant Oryza sativa Rubisco activase (RCA), beta (short) isoform (protein)
chain: MAKELDEGKQTDQDRWKGLAYDISDDQQDITRGKGFVDSLFQAPTGDGTHEAVLSSYEYLSQGLRTYDFDNTMGGFYIAPAFMDKLVVHISKNFMTLPNIKVPLILGIWGGKGQGKSFQCELVFAKMGINPIMMSAGELESGNAGEPAKLIRQRYREAADIIKKGKMCCLFINDLDAGAGRMGGTTQYTVNNQMVNATLMNIADNPTNVQLPGMYNKEDNPRVPIIVTGNDFSTLYAPLIRDGRMEKFYWAPTRDDRVGVCKGIFRTDNVPDEDIVKIVDSFPGQSIDFFGALRARVYDDEVRKWVSDTGVENIGKRLVNSREGPPEFEQPKMTIEKLMEYGYMLVKEQENVKRVQLAEQYLSEAALGDANSDAMKTGSFYGSAPSS
B5: recombinant Oryza australiensis Rubisco activase (RCA), beta (short) isoform (protein)
chain: MAKELDEDKQTDQDKWKGLAYDISDDQQDITRGKGLVDSLFQAPMGDGTHEAVLSSYEYLSQGLKMLDNTMGGFYIAPAFMDKLVVHISKNFMALPNIKVPLILGIWGGKGQGKSFQCELVFSKMGINPIMMSAGELESGNAGEPAKLIRQRYREAADIIKKGKMCCLFINDLDAGAGRMGGTTQYTVNNQMVNATLMNIADNPTNVQLPGMYNKEDNPRVPIIVTGNDFSTLYAPLIRDGRMEKFYWAPTRDDRVGVCKGIFRTDNVPDEDIVKIVDSFPGQSIDFFGALRARVYDDEVRKWVSDTGVENIGKKLVNSREGPPEFEQPKMTIDKLMEYGHMLVREQENVKRVQLADKYLSEAALGDANSDAMKTGSFYGAAPSS
B6: leaf-extracted RCA from Oryza australiensis (partially purified, alpha and beta isoforms) (protein)
chain 1: KELDEDKQTDQDKWKGLAYDISDDQQDITRGKGLVDSLFQAPMGDGTHEAVLSSYEYLSQGLKMLDNTMGGFYIAPAFMDKLVVHISKNFMALPNIKVPLILGIWGGKGQGKSFQCELVFSKMGINPIMMSAGELESGNAGEPAKLIRQRYREAADIIKKGKMCCLFINDLDAGAGRMGGTTQYTVNNQMVNATLMNIADNPTNVQLPGMYNKEDNPRVPIIVTGNDFSTLYAPLIRDGRMEKFYWAPTRDDRVGVCKGIFRTDNVPDEDIVKIVDSFPGQSIDFFGALRARVYDDEVRKWVSDTGVENIGKKLVNSREGPPEFEQPKMTIDKLMEYGHMLVREQENVKRVQLADKYLSEAALGDANSDAMKTGSFYGQGAQQGGNLPVPEGCTDPVAKNFDPTARSDDGSCLYTF
chain 2: KELDEDKQTDQDKWKGLAYDISDDQQDITRGKGLVDSLFQAPMGDGTHEAVLSSYEYLSQGLKMLDNTMGGFYIAPAFMDKLVVHISKNFMALPNIKVPLILGIWGGKGQGKSFQCELVFSKMGINPIMMSAGELESGNAGEPAKLIRQRYREAADIIKKGKMCCLFINDLDAGAGRMGGTTQYTVNNQMVNATLMNIADNPTNVQLPGMYNKEDNPRVPIIVTGNDFSTLYAPLIRDGRMEKFYWAPTRDDRVGVCKGIFRTDNVPDEDIVKIVDSFPGQSIDFFGALRARVYDDEVRKWVSDTGVENIGKKLVNSREGPPEFEQPKMTIDKLMEYGHMLVREQENVKRVQLADKYLSEAALGDANSDAMKTGSFYGAAPSS

Legend:
[1] = target: Rubisco from wheat (wheat) (UniProt P11383); experiment: cell-based or functional assay
[2] = target: Rubisco (Ribulose-1,5-bis-phosphate carboxylase/oxygenase) purified from Oryza sativa leaves (Oryza sativa) (UniProt P0C512); experiment: cell-based or functional assay
[3] = target: Rubisco (Ribulose-1,5-bis-phosphate carboxylase/oxygenase) purified from Oryza sativa leaves, P0C512

Row | Molecule | Rubisco activation activity of recombinant RCA at 30 and 36° C. [3] | concentration-dependent specific activity of ATP hydrolysis | temperature stability of ATP hydrolysis | other results
1 | beta isoform of RCA extracted from wheat leaves (0.2 M KCl anion-exchange fraction) (enzyme) | – | – | – | activation of wheat Rubisco by leaf-extracted beta isoform at less than 34° C., relative to the rice RCA isoforms [1]: > 2 fold
2 | leaf-extracted RCA from Oryza sativa (partially purified, alpha and beta isoforms) (from UniProt P93431 49-466; P93431 49-428) (enzyme) | – | – | – | reduction in fraction of Rubisco activated at comparable temperatures [2]: 80%
3 | B1 | – | – | – | peak in RCA activation performance (temperature of maximal Rubisco activation) [3]: 29.9±0.5 °C for O. sativa
4 | B2 | there is little difference in activity of the α isoform between the species | specific activity of ATP hydrolysis falls at low RCA concentrations | both being heat stable, not losing activity until 40 °C | –
5 | B3 | there is little difference in activity of the α isoform between the species | specific activity of ATP hydrolysis falls at low RCA concentrations | both being heat stable, not losing activity until 40 °C | –
6 | B4 | the β isoform of RCAOs has higher activity than RCAOa | specific activity of ATP hydrolysis falls at low RCA concentrations | both being heat stable, not losing activity until 40 °C | –
7 | B5 | the β isoform of RCAOs has higher activity than RCAOa | specific activity of ATP hydrolysis falls at low RCA concentrations | both being heat stable, not losing activity until 40 °C | –
8 | B6 | – | – | – | absolute rate of Rubisco activation at 42° C. relative to Os RCA [3]: at 42 °C Oa had an absolute rate of activity four-times that of Os; drop in Rubisco activation activity at 42° C. relative to 30° C., RCA at 0.96 mg·mL^-1 [3]: close to a 50% drop in activity at 42 °C relative to 30 °C; fall in Rubisco activation activity at 42° C. relative to 30° C., RCA at 0.24 and 0.49 mg·mL^-1 [3]: less than a 20% fall at concentrations of 0.24 and 0.49 mg·mL^-1; peak in RCA activation performance (temperature of maximal Rubisco activation) [3]: 33.0±0.3 °C for O. australiensis
